Experimental data reported in the supplement of paper PMC5998384.

Assays:
HeLa Kyoto [1] = test: solubility change mitosis vs G1/S (difference of NP-40 vs SDS log2 ratios) (log2 ratio difference); higher = more soluble in mitosis
HeLa Kyoto [2] = test: solubility in G1/S (NP-40 vs SDS abundance) (log2 ratio); higher = more soluble; conditions: cell cycle stage: G1/S
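Wherever solubility change mitosis vs G1/S (difference of NP-40 vs SDS log2 ratios) is given: synchronized HeLa Kyoto cells (double thymidine block for G1/S, nocodazole release for mitosis), protein amounts in NP-40 versus SDS lysates quantified by mass spectrometry, three biological replicates.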
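Wherever solubility in G1/S (NP-40 vs SDS abundance) is given: HeLa Kyoto cells arrested at G1/S by double thymidine block, proteins quantified by TMT10plex mass spectrometry in mild NP-40 versus SDS extracts, three biological replicates.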

Sequence: MDPLRAQQLAAELEVEMMADMYNRMTSACHRKCVPPHYKEAELSKGESVCLDRCVSKYLDIHERMGKKLTELSMQDEELMKRVQQSSGPA [TIMM10]
- solubility change mitosis (log2) (HeLa Kyoto [1]): 0.197
- solubility in G1/S (log2) (HeLa Kyoto [2]): -0.415

Sequence: MDPRGILKAFPKRQKIHADASSKVLAKIPRREEGEEAEEWLSSLRAHVVRTGIGRARAELFEKQIVQHGGQLCPAQGPGVTHIVVDEGMDYERALRLLRLPQLPPGAQLVKSAWLSLCLQERRLVDVAGFSIFIPSRYLDHPQPSKAEQDASIPPGTHEALLQTALSPPPPPTRPVSPPQKAKEAPNTQAQPISDDEASDGEETQVSAADLEALISGHYPTSLEGDCEPSPAPAVLDKWVCAQPSSQKATNHNLHITEKLEVLAKAYSVQGDKWRALGYAKAINALKSFHKPVTSYQEACSIPGIGKRMAEKIIEILESGHLRKLDHISESVPVLELFSNIWGAGTKTAQMWYQQGFRSLEDIRSQASLTTQQAIGLKHYSDFLERMPREEATEIEQTVQKAAQAFNSGLLCVACGSYRRGKATCGDVDVLITHPDGRSHRGIFSRLLDSLRQEGFLTDDLVSQEENGQQQKYLGVCRLPGPGRRHRRLDIIVVPYSEFACALLYFTGSAHFNRSMRALAKTKGMSLSEHALSTAVVRNTHGCKVGPGRVLPTPTEKDVFRLLGLPYREPAERDW [POLL]
- solubility change mitosis (log2) (HeLa Kyoto [1]): -0.00139
- solubility in G1/S (log2) (HeLa Kyoto [2]): 0.0728

Sequence: MDPSADTWDLFSPLISLWINRFYIYLGFAVSISLWICVQIVIKTQGKNLQEKSVPKAAQDLMTNGYVSLQEKDIFVSGVKIFYGSQTGTAKGFATVLAEAVTSLDLPVAIINLKEYDPDDHLIEEVTSKNVCVFLVATYTDGLPTESAEWFCKWLEEASIDFRFGKTYLKGMRYAVFGLGNSAYASHFNKVGKNVDKWLWMLGAHRVMSRGEGDCDVVKSKHGSIEADFRAWKTKFISQLQALQKGERKKSCGGHCKKGKCESHQHGSEEREEGSHEQDELHHRDTEEEEPFESSSEEEFGGEDHQSLNSIVDVEDLGKIMDHVKKEKREKEQQEEKSGLFRNMGRNEDGERRAMITPALREALTKQGYQLIGSHSGVKLCRWTKSMLRGRGGCYKHTFYGIESHRCMETTPSLACANKCVFCWRHHTNPVGTEWRWKMDQPEMILKEAIENHQNMIKQFKGVPGVKAERFEEGMTVKHCALSLVGEPIMYPEINRFLKLLHQCKISSFLVTNAQFPAEIRNLEPVTQLYVSVDASTKDSLKKIDRPLFKDFWQRFLDSLKALAVKQQRTVYRLTLVKAWNVDELQAYAQLVSLGNPDFIEVKGVTYCGESSASSLTMAHVPWHEEVVQFVHELVDLIPEYEIACEHEHSNCLLIAHRKFKIGGEWWTWIDYNRFQELIQEYEDSGGSKTFSAKDYMARTPHWALFGASERGFDPKDTRHQRKNKSKAISGC [TYW1]
- solubility change mitosis (log2) (HeLa Kyoto [1]): -0.205
- solubility in G1/S (log2) (HeLa Kyoto [2]): -0.157

Sequence: MDPVVLSYMDSLLRQSDVSLLDPPSWLNDHIIGFAFEYFANSQFHDCSDHVSFISPEVTQFIKCTSNPAEIAMFLEPLDLPNKRVVFLAINDNSNQAAGGTHWSLLVYLQDKNSFFHYDSHSRSNSVHAKQVAEKLEAFLGRKGDKLAFVEEKAPAQQNSYDCGMYVICNTEALCQNFFRQQTESLLQLLTPAYITKKRGEWKDLITTLAKK [SENP8]
- solubility change mitosis (log2) (HeLa Kyoto [1]): -0.151
- solubility in G1/S (log2) (HeLa Kyoto [2]): 0.62

Sequence: MDQFGDILEGEVDHSFFDSDFEEGKKCETNSVFDKQNDDPKERIDKDTKNVNSNTGMQTTENYLTEKGNERNVKFPPEHPVENDVTQTVSSFSLPASSRSKKLCDVTTGLKIHVSIPNRIPKIVKEGEDDYYTDGEESSDDGKKYHVKSKSAKPSTNVKKSIRKKYCKVSSSSSSSLSSSSSGSGTDCLDAGSDSHLSDSSPSSKSSKKHVSGITLLSPKHKYKSGIKSTETQPSSTTPKCGHYPEESEDTVTDVSPLSTPDISPLQSFELGIANDQKVKIKKQENVSQEIYEDVEDLKNNSKYLKAAKKGKEKHEPDVSSKSSSVLDSSLDHRHKQKVLHDTMDLNHLLKAFLQLDKKGPQKHHFDQPSVAPGKNYSFTREEVRQIDRENQRLLKELSRQAEKPGSKSTIPRSADHPPKLYHSALNRQKEQQRIERENLALLKRLEAVKPTVGMKRSEQLMDYHRNMGYLNSSPLSRRARSTLGQYSPLRASRTSSATSGLSCRSERSAVDPSSGHPRRRPKPPNVRTAWL [CFAP97]
- solubility change mitosis (log2) (HeLa Kyoto [1]): -0.039
- solubility in G1/S (log2) (HeLa Kyoto [2]): 0.0651

Sequence: MDRRKKPLDVTASSLVDLKAELFRKQEEFKQEKLLKDSGVFGKPKTTNKKPSIWSKQNVGVSNRAEKDAEQKIEEQKTLDKAREKLEEKAKLYEKMTKGDFIDEEVEDMYLVDFTQKIIDKRKEMEASGAHRDSQKAGERDDDEENLPEGEIPPPQDPSEEWVDYVDSLGRSRRCMRKDLPDLLEMDKNLQGRLFISPANEKTLLSEDMRKELQRQQWEEEEREALKRPMGPVHYEDIRENEARQLGVGYFAFARDKELRNKQMKTLEMLREQTTDQRTKRENIKEKRKAILEARLAKLRQKKMKKSKEGGTEEENRDGDVIGPLPPEPEAVPTPRPAAQSSKVEVIVQERKDTKPGVPHIREWDRGKEFSFGYWSKRQSDLRAERDPEFAPPSDYFVGQKRTGFSSSQAWSRPGPAQSDPGQCPDQSHGPSPEHTSPTPAPDNPPQAPTVTFKTLDDMISYYKQVT [CCDC174]
- solubility change mitosis (log2) (HeLa Kyoto [1]): 0.139
- solubility in G1/S (log2) (HeLa Kyoto [2]): 0.12

Sequence: MDSSSSSSAAGLGAVDPQLQHFIEVETQKQRFQQLVHQMTELCWEKCMDKPGPKLDSRAEACFVNCVERFIDTSQFILNRLEQTQKSKPVFSESLSD [TIMM8A]
- solubility change mitosis (log2) (HeLa Kyoto [1]): 0.392
- solubility in G1/S (log2) (HeLa Kyoto [2]): -0.653

Sequence: MEAEESEKAATEQEPLEGTEQTLDAEEEQEESEEAACGSKKRVVPGIVYLGHIPPRFRPLHVRNLLSAYGEVGRVFFQAEDRFVRRKKKAAAAAGGKKRSYTKDYTEGWVEFRDKRIAKRVAASLHNTPMGARRRSPFRYDLWNLKYLHRFTWSHLSEHLAFERQVRRQRLRAEVAQAKRETDFYLQSVERGQRFLAADGDPARPDGSWTFAQRPTEQELRARKAARPGGRERARLATAQDKARSNKGLLARIFGAPPPSESMEGPSLVRDS [ABT1]
- solubility change mitosis (log2) (HeLa Kyoto [1]): 0.803
- solubility in G1/S (log2) (HeLa Kyoto [2]): -0.95

Sequence: MEDERSFSDICGGRLALQRRYYSPSCREFCLSCPRLSLRSLTAVTCTVWLAAYGLFTLCENSMILSAAIFITLLGLLGYLHFVKIDQETLLIIDSLGIQMTSSYASGKESTTFIEMGKVKDIVINEAIYMQKVIYYLCILLKDPVEPHGISQVVPVFQSAKPRLDCLIEVYRSCQEILAHQKATSTSP [PIGH]
- solubility change mitosis (log2) (HeLa Kyoto [1]): 0.146
- solubility in G1/S (log2) (HeLa Kyoto [2]): -0.116

Sequence: MEDGTPKHIIQMTGFKMEEKEALVKLLLKLDCTFIKSEKYKNCTHLIAERLCKSEKFLAACAAGKWILTKDYIIHSAKSGRWLDETTYEWGYKIEKDSRYSPQMQSAPKRWREELKRTGAPGAFHRWKVVLLVRTDKRSDSLIRVLEAGKANVILPKSSPSGITHVIASNARIKAEKEKDNFKAPFYPIQYLGDFLLEKEIQNDEDSQTNSVWTEHSNEETNKDFRKDAGFLEMKGALRETMYRTQKEMQNHEDVNVGSILIQHHKKEKFSGSSKDLKFVKMRNTFGSHTYENQKEIKKKDEDIQRSYTLRRKRKKGKESNCKKGVEHEKIKSTLRRHIYNRDQKEMKNSIFAEYAKESKAMAIKTDVDVVEIKNTLRKHIYRAQAVRYNCIRIDKQPVYNVEVKNAEFPRGVLNLIESLIEGHFFKEAIEELSTLQAHYIPPVCVLHALLENVLQDNIDTFSGRYFHILSALLHLHPPWKSPAMSRYYLELFQCPTCMKGAWSLVEVLIRSCLFNESFCHQISENIGSKVLHLTLLKFFFNLIESEVQHLSQKLYDWSDSQNLKITGKAMLLEIFWSGSETSGLLTKPVNMLLEWTIYSHKEKFKSNDVFKHELAYLLAGILGAAIDYWIFLGLKMGRNVMRHMSDDLGSYVSLSCDDFSSQELEIFICSFSSSWLQMFVAEAVFKKLCLQSSGSVSSEPLSLQKMVYSYLPALGKTGVLGSGKIQVSKKIGQRPCFDSQRTLLMLNGTKQKQVEGLPELLDLNLAKCSSSLKKLKKKSEGELSCSKENCPSVVKKMNFHKTNLKGETALHRACINNQVEKLILLLSLPGIDINVKDNAGWTPLHEACNYGNTVCVQEILQRCPEVDLLTQVDGVTPLHDALSNGHVEIGKLLLQHGGPVLLQQRNAKGELPLDYVVSPQIKEELFAITKIEDTVENFHAQAEKHFHYQQLEFGSFLLSRMLLNFCSIFDLSSEFILASKGLTHLNELLMACKSHKETTSVHTDWLLDLYAGNIKTLQKLPHILKELPENLKVCPGVHTEALMITLEMMCRSVMEFS [SLF1]
- solubility change mitosis (log2) (HeLa Kyoto [1]): 0.644
- solubility in G1/S (log2) (HeLa Kyoto [2]): -0.991

Sequence: MEDSQDLNEQSVKKTCTESDVSQSQNSRSMEMQDLASPHTLVGGGDTPGSSKLEKSNLSSTSVTTNGTGGENMTVLNTADWLLSCNTPSSATMSLLAVKTEPLNSSETTATTGDGALDTFTGSVITSSGYSPRSAHQYSPQLYPSKPYPHILSTPAAQTMSAYAGQTQYSGMQQPAVYTAYSQTGQPYSLPTYDLGVMLPAIKTESGLSQTQSPLQSGCLSYSPGFSTPQPGQTPYSYQMPGSSFAPSSTIYANNSVSNSTNFSGSQQDYPSYTAFGQNQYAQYYSASTYGAYMTSNNTADGTPSSTSTYQLQESLPGLTNQPGEFDTMQSPSTPIKDLDERTCRSSGSKSRGRGRKNNPSPPPDSDLERVFVWDLDETIIVFHSLLTGSYAQKYGKDPPMAVTLGLRMEEMIFNLADTHLFFNDLEECDQVHIDDVSSDDNGQDLSTYSFATDGFHAAASSANLCLPTGVRGGVDWMRKLAFRYRRVKELYNTYKNNVGGLLGPAKRDAWLQLRAEIEGLTDSWLTNALKSLSIISTRSNCINVLVTTTQLIPALAKVLLYSLGGAFPIENIYSATKIGKESCFERIMQRFGRKVVYVVIGDGVEEEQAAKKHNMPFWRISSHSDLLALHQALELEYL [EYA4]
- solubility change mitosis (log2) (HeLa Kyoto [1]): -0.16
- solubility in G1/S (log2) (HeLa Kyoto [2]): -0.147

Sequence: MEEERGSALAAESALEKNVAELTVMDVYDIASLVGHEFERVIDQHGCEAIARLMPKVVRVLEILEVLVSRHHVAPELDELRLELDRLRLERMDRIEKERKHQKELELVEDVWRGEAQDLLSQIAQLQEENKQLMTNLSHKDVNFSEEEFQKHEGMSERERQVMKKLKEVVDKQRDEIRAKDRELGLKNEDVEALQQQQTRLMKINHDLRHRVTVVEAQGKALIEQKVELEADLQTKEQEMGSLRAELGKLRERLQGEHSQNGEEEPETEPVGEESISDAEKVAMDLKDPNRPRFTLQELRDVLHERNELKSKVFLLQEELAYYKSEEMEEENRIPQPPPIAHPRTSPQPESGIKRLFSFFSRDKKRLANTQRNVHIQESFGQWANTHRDDGYTEQGQEALQHL [RILPL1]
- solubility change mitosis (log2) (HeLa Kyoto [1]): -0.0361
- solubility in G1/S (log2) (HeLa Kyoto [2]): 0.246

Sequence: MEEIKPASASCVSKEKPSKVSDLISRFEGGSSLSNYSDLKKESAVNLNAPRTPGRHGLTTTPQQKLLSQHLPQRQGNDTDKTQGAQTCVANGVMAAQNQMECEEEKAATLSSDTSIQASEPLLDTHIVNGERDETATAPASPTTDSCDGNASDSSYRTPGIGPVLPLEERGAETETKVQERENGESPLELEQLDQHHEMKETNEQKLHKIANELLLTERAYVNRLDLLDQVFYCKLLEEANRGSFPAEMVNKIFSNISSINAFHSKFLLPELEKRMQEWETTPRIGDILQKLAPFLKMYGEYVKGFDNAMELVKNMTERIPQFKSVVEEIQKQKICGSLTLQHHMLEPVQRIPRYEMLLKDYLRKLPPDSLDWNDAKKSLEIISTAASHSNSAIRKMENLKKLLEIYEMLGEEEDIVNPSNELIKEGQILKLAARNTSAQERYLFLFNNMLLYCVPKFSLVGSKFTVRTRVGIDGMKIVETQNEEYPHTFQVSGKERTLELQASSAQDKEEWIKALQETIDAFHQRHETFRNAIAKDNDIHSEVSTAELGKRAPRWIRDNEVTMCMKCKEPFNALTRRRHHCRACGYVVCWKCSDYKAQLEYDGGKLSKVCKDCYQIISGFTDSEEKKRKGILEIESAEVSGNSVVCSFLQYMEKSKPWQKAWCVIPKQDPLVLYMYGAPQDVRAQATIPLLGYVVDEMPRSADLPHSFKLTQSKSVHSFAADSEELKQKWLKVILLAVTGETPGGPNEHPATLDDHPEPKKKSEC [FGD4]
- solubility change mitosis (log2) (HeLa Kyoto [1]): -0.00729
- solubility in G1/S (log2) (HeLa Kyoto [2]): -0.163
